The assay has as its target human Tau441 (2N4R), recombinant, phosphorylated in vitro by PKA (human) (UniProt P10636). Briefly: cross-linking + other: mass photometry; BS3 amine-amine crosslinking of purified 4R tau (tau441, with or without PKA phosphorylation) with purified recombinant 14-3-3 β, 20-fold molar excess, 1× PBS pH 8.0, 30 min room temperature; mass photometry in DPBS at room temperature.

Chain of human Tau441 (2N4R), recombinant, phosphorylated in vitro by PKA (human) (P10636 other isoform, or with tags, fused parts or gaps): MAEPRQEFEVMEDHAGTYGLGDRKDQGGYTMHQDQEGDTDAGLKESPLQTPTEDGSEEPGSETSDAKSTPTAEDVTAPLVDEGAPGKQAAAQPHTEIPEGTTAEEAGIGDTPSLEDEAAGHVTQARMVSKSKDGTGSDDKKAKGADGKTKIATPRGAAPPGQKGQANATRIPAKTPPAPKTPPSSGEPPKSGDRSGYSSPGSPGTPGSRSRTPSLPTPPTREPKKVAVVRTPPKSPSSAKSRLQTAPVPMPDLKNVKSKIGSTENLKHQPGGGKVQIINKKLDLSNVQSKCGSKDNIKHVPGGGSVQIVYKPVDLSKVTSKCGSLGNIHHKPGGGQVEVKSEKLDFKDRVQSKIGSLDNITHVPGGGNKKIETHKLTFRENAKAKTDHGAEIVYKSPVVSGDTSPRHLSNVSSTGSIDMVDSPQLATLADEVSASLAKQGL

As for “purified recombinant 14-3-3 β (from UniProt P31946 1-246) (natural protein)”, the stoichiometry N (14-3-3-β per tau) was 2.

Values taken from publication PMC10035768.
